In patent US20230002481A1 (Chugai, published 2023):
Numbering of substitutions follows the chain as printed.

Experiments:
[1] = molecular target: T1, cyno FcRn complexed with β2-microglobulin (cynomolgus monkey, UniProt Q8SPV9 24-290; Q8SPW0 21-119); assay: SPR (Biacore T200), antibody captured on Protein L, cyno FcRn 0-240 nM as analyte, steady-state analysis, pH6.0, 25 C
T1 construct: also called cynomolgous monkey neonatal Fc receptor
Method: Analysis of interaction between each antibody and the FcRn prepared as mentioned above was carried out using BIACORE (registered trademark) T200 (GE Healthcare). Buffer solution containing 150 mM sodium chloride, 0.05 w/v % Tween-20, 50 mM phosphate buffer (pH6.0) was used as running buffer, and the measurement temperature was set to 25 degrees C. Series S sensor Chip CM4 (GE Healthcare) onto which Protein L (BioVision) had been immobilized by the amine coupling method was used. After capturing 400 resonance unit (RU) of antibodies of interest onto the chip via the Protein L, FcRn diluted with the running buffer was allowed to interact, then the KD values were calculated. COS0098pHv1-SG1 was evaluated with 0, 250, 500, 1000, 2000, 4000 nM cyno FcRn, and COS0098pHv1-SG1077R was evaluated with 0, 15, 30, 60, 120, 240 nM cyno FcRn. Then, the chip capturing each antibody was washed by 10 mM Glycine-HCl, pH1.5, regenerated and used repeatedly. The equilibrium dissociation constant (KD (M)) for cyno FcRn was calculated for each antibody based on the steady-state analysis. The Biacore T200 Evaluation Software (GE Healthcare) was used to calculate each parameter.

[2] = molecular target: T2, cyno FcγRIIa2 (cynomolgus monkey); assay: SPR (Biacore T200), antibody captured on Protein L, FcγR at 1000 nM, pH7.4, 25 C
T2 construct: also called cyFcyRIIa2; not shown: C-terminal His-tag
T2 chain: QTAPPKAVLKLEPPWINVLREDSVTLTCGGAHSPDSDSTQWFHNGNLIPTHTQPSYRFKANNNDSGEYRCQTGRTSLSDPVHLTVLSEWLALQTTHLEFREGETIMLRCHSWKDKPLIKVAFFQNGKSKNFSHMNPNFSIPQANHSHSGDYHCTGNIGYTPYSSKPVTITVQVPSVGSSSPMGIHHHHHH
Method: (§1) Analysis of interaction between antibody and the FcγR prepared as mentioned above was carried out using BIACORE (registered trademark) T200 (GE Healthcare). 150 mMN Sodium chloride and 0.05 w/v % Tween-20 containing 50 mM phosphate buffer (pH7.4) was used as running buffer, and the measurement temperature was set to 25 degrees C. Chip produced by immobilizing Protein L (BioVision) by the amine coupling method to a Series S sensor Chip CM4 (GE Healthcare) was used. After capturing 500 or 1000 resonance unit (RU) of antibodies of interest onto the chip, FcγRs diluted with the running buffer were allowed to interact, and their binding amounts to antibodies were measured. Cyno FcγRIa was diluted to 8 nM, and others were diluted to 1000 nM. Then, antibodies captured onto the chip were washed by 10 mM Glycine-HC, pH1.5, and the chip was regenerated and used repeatedly. The binding amounts of FcγRs were divided by the binding amount of each antibody captured to obtain binding activity using biacore evaluation software, and these values were compared. Furthermore, the relative values of binding activity of COS0098pHv1-SG1077R to each FcγR to COS0098pHv1-SG1 (an antibody having the sequence of a naturally-occurring human IgG1 at positions 234 to 239, 265 to 271, 295, 296, 298, 300, and 324 to 337, according to EU numbering) were calculated.

[3] = molecular target: T3, cyno FcγRIIa3 (cynomolgus monkey); assay: as above
T3 construct: not shown: C-terminal His-tag
T3 chain: T2 chain with K127I, N130K, H133P, Q142R
Method: as §1

[4] = molecular target: T4, cyno FcγRIIa1 (cynomolgus monkey); assay: as above
T4 construct: also called cyFcyRIIa1; not shown: C-terminal His-tag
T4 chain: T2 chain with T95P, A121T, K127I, S128A, N130K, N135D, Q142R
Method: as §1

[5] = molecular target: T5, cyno FcγRIIb (cynomolgus monkey); assay: as above
T5 construct: also called cyFcyRIIb; not shown: C-terminal His-tag
T5 chain: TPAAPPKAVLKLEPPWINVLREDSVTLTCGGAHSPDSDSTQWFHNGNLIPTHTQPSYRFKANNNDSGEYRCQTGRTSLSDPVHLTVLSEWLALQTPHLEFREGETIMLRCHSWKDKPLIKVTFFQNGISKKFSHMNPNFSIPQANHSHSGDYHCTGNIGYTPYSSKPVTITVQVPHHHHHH
Method: as §1

[6] = molecular target: T6, cyno FcγRIIIa(S) (cynomolgus monkey, UniProt Q8SPW2 21-206 at identity 1.00)); assay: as above
T6 construct: also called cyFcyRIIIa(S); not shown: C-terminal His-tag
T6 chain: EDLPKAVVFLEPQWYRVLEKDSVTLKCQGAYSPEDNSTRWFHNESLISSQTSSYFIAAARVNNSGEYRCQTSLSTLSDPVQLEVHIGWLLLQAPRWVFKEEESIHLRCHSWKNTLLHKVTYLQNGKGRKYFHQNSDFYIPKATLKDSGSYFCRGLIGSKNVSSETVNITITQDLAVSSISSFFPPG
Method: as §1

[7] = molecular target: T7, cyno FcγRIIIa(R) (cynomolgus monkey, UniProt Q8SPW2 17-208); assay: as above
T7 construct: also called cyFcyRIIIa(R); not shown: C-terminal His-tag
Method: as §1

[8] = molecular target: T8, cyno FcγRIa (cynomolgus monkey, UniProt P12314 16-288 (human entry)); assay: SPR (Biacore T200), antibody captured on Protein L, FcγRIa at 8 nM, pH7.4, 25 C
T8 construct: also called cyFcyRIa; cynomolgus monkey Fc gamma receptor Ia; not shown: C-terminal His-tag
T8 chain: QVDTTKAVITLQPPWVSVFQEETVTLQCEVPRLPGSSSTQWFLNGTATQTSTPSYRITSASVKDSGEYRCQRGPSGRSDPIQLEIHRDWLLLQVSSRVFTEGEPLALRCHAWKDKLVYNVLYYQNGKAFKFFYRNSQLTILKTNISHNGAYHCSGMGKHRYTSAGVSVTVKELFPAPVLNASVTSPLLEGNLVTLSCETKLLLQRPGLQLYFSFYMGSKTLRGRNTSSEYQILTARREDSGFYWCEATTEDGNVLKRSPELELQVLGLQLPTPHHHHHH
Method: as §1

T7 sequence (Q8SPW2 other isoform, or with tags, fused parts or gaps): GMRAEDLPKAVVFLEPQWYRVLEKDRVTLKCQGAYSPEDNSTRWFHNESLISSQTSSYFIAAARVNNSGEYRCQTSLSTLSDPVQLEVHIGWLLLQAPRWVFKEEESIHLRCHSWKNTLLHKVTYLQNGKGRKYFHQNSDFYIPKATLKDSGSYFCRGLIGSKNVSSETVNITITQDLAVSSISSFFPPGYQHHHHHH
T1 sequence (Q8SPV9 24-290 limits assumed, chain 1 of 2): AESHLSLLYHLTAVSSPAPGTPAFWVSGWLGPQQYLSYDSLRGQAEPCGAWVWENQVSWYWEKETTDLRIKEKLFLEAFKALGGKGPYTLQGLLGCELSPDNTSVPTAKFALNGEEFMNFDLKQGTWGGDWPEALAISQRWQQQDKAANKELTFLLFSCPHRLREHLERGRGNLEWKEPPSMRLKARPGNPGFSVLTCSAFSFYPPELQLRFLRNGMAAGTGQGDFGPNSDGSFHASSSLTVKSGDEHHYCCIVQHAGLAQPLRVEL
T1 sequence (Q8SPW0 21-119 limits assumed, chain 2 of 2): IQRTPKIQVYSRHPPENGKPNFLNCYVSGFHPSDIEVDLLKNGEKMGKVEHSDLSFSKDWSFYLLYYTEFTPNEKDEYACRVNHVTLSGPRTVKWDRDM

B1: COS0098pHv1-SG1077R (antibody)
heavy: QVQLVQSGAEVKKPGSSVKVSCKASGHTFSKYTVSWIRQPPGKGLEWIGIINTGGSAYPATWAKGRVTITADESTSTAYMELSSLRSEDTAVYYCARGAGDTDYTNLWGQGTLVTVSSASTKGPSVFPLAPSSKSTSGGTAALGCLVKDYFPEPVTVSWNSGALTSGVHTFPAVLQSSGLYSLSSVVTVPSSSLGTQTYICNVNHKPSNTKVDKRVEPKSCDKTHTCPPCPAPELWNGPSVFLFPPKPKDTLMISRTPEVTCVVVDVSDEDPEVKFNWYVDGVEVHNAKTKPREELYNSTYRVVSVLTVLHRDWLNGKEYKCKVSNTALPKPIEKTISKAKGQRREPQVYTLPPSREEMTKNQVSLTCLVKGFYPSDIAVEWESNGQPENNYKTTPPVLDSDGSFFLYSKLTVDKSRWQQGNVFSCSVLHEALHAHTTRKELSLSP
light: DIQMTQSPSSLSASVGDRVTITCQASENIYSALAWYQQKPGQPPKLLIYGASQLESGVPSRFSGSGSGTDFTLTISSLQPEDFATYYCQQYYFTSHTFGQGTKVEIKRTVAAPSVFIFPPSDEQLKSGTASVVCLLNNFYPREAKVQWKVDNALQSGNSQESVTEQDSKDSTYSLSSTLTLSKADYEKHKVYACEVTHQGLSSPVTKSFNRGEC
notes: also called COS009pHv1-SG1077R; COS009BpHv1-SG1077R
For B1, the Kd [1] was 70 nM, the “Binding activity value (Binding amount per 1 RU antibody)” value [2] was 0.0425 RU per 1 RU antibody and the “Relative value of binding activity” value [2] was 2.51 fold, relative to COS0098pHv1-SG1. For the same binder, the “Binding activity value (Binding amount per 1 RU antibody)” value [3] was 0.025 RU per 1 RU antibody, the “Relative value of binding activity” value [3] was 3.96 fold, relative to COS0098pHv1-SG1 and the “Binding activity value (Binding amount per 1 RU antibody)” value [4] was 0.0436 RU per 1 RU antibody. The “Relative value of binding activity” value [4] was 2.23 fold, relative to COS0098pHv1-SG1, the “Binding activity value (Binding amount per 1 RU antibody)” value [5] was 0.082 RU per 1 RU antibody and the “Relative value of binding activity” value [5] was 2.86 fold, relative to COS0098pHv1-SG1. For the same binder, the “Binding activity value (Binding amount per 1 RU antibody)” value [6] was 0.0084 RU per 1 RU antibody, the “Relative value of binding activity” value [6] was 0.07 fold, relative to COS0098pHv1-SG1 and the “Binding activity value (Binding amount per 1 RU antibody)” value [7] was 0.006 RU per 1 RU antibody. The “Relative value of binding activity” value [7] was 0.05 fold, relative to COS0098pHv1-SG1 and the “Relative value of binding activity” value [8] was 0.06 fold, relative to COS0098pHv1-SG1.
